Results reported in article PMC12013264 (mSystems, 2025).
Converted amounts (≈) assume the structure as drawn. Where two headings read alike, the source gives them in different places.

Tests used:
KPC-3 = biological target: T1, KPC-3 (Klebsiella pneumoniae, UniProt Q93DC4); test: isothermal titration calorimetry; assay type: binding
T1 construct: gene bla; signal peptide (1-29) removed, KPC30-293 in pET28a, E. coli BL21 Rosetta-gami DE3, His-tag cut with thrombin
Excerpt: isothermal titration calorimetry on KPC-3

E. coli DH10B = system: T2, E. coli DH10B; test: microbe, parasite or virus in culture; design: species or system E. coli DH10B or K. pneumoniae; CLSI standard broth microdilution MIC in triplicate, median values; settings: Escherichia coli
T2 construct: DH10B empty plasmid control
Excerpt: (§1) The blaKPC amplicons (full length) were cloned into the Tn4401a-pET28a plasmid between the BamHI (as the 5′ end upstream) and XbaI (as the 3′ end downstream) restriction sites, which is the opposite direction of conventional induced expression for removing the His-tag expression. This insertion was downstream of the blaKPC Tn4401a promoter. The Tn4401a promoter was inserted between the EcoRI and BamHI sites. KPC expression was achieved by inserting the natural promoter Tn4401a upstream of the blaKPC gene, thus avoiding the use of the pET-28a vector’s T7 promoter and the resulting His-tag fusion. E. coli DH10B strains containing the generated KPCs-Tn4401a-pET28a plasmid underwent antimicrobial susceptibility testing in triplicate using the standard broth microdilution, following the Clinical and Laboratory Standards Institute (CLSI) recommendations (CLSI M100-S34) . Klebsiella pneumoniae expressing KPC-3 and E. coli DH10B containing an empty plasmid served as positive and negative controls, respectively.

[1] = system: T3, E. coli DH10B carrying KPC-2-Tn4401a-pET28a; test: microbe, parasite or virus in culture; design: species or system E. coli DH10B or K. pneumoniae; CLSI standard broth microdilution MIC in triplicate, median values; settings: Escherichia coli
T3 construct: DH10B full-length blaKPC-2 under Tn4401a promoter in pET28a
Excerpt: as §1, with “.” for “. Klebsiella pneumoniae expressing KPC-3 and E. coli DH10B containing an empty plasmid served as positive and negative controls, respectively.”

[2] = system: T4, E. coli DH10B carrying KPC-3-Tn4401a-pET28a; test: microbe, parasite or virus in culture; design: species or system E. coli DH10B or K. pneumoniae; CLSI standard broth microdilution MIC in triplicate, median values; settings: Escherichia coli
T4 construct: DH10B full-length blaKPC-3 under Tn4401a promoter in pET28a
Excerpt: as §1, with “.” for “. Klebsiella pneumoniae expressing KPC-3 and E. coli DH10B containing an empty plasmid served as positive and negative controls, respectively.”

[3] = system: T5, Klebsiella pneumoniae Kpn with KPC-3; test: microbe, parasite or virus in culture; design: species or system E. coli DH10B or K. pneumoniae; CLSI standard broth microdilution MIC in triplicate, median values
T5 construct: K. pneumoniae producing KPC-3, positive control

[4] = system: CC(C)(O/N=C(\C(=O)N[C@@H]1C(=O)N2C(C(=O)[O-])=C(C[n+]3ccccc3)CS[C@H]12)c1csc(N)n1)C(=O)O; test: purified protein; settings: 100 mM sodium phosphate, pH 7.0, 37 °C
[5] = system: CCN1CCN(C(=O)N[C@@H](C(=O)N[C@@H]2C(=O)N3[C@@H]2SC(C)(C)[C@@H]3C(=O)O)c2ccccc2)C(=O)C1=O; test: purified protein; settings: 100 mM sodium phosphate, pH 7.0, 37 °C
[6] = system: CO/N=C(\C(=O)N[C@@H]1C(=O)N2C(C(=O)[O-])=C(C[N+]3(C)CCCC3)CS[C@H]12)c1csc(N)n1; test: purified protein; settings: 100 mM sodium phosphate, pH 7.0, 37 °C
[7] = system: C[C@@H](O)[C@H]1C(=O)N2C(C(=O)O)=C(SCCN=CN)C[C@H]12; test: purified protein; settings: 100 mM sodium phosphate, pH 7.0, 37 °C
[8] = system: C[C@@H](O)[C@H]1C(=O)N2C(C(=O)O)=C(S[C@@H]3CN[C@H](C(=O)N(C)C)C3)[C@H](C)[C@H]12; test: purified protein; settings: 100 mM sodium phosphate, pH 7.0, 37 °C
[9] = system: Cc1nnc(SCC2=C(C(=O)O)N3C(=O)[C@@H](NC(=O)Cn4cnnn4)[C@H]3SC2)s1; test: purified protein; settings: 100 mM sodium phosphate, pH 7.0, 37 °C

T1 sequence (Q93DC4 30-293 limits assumed): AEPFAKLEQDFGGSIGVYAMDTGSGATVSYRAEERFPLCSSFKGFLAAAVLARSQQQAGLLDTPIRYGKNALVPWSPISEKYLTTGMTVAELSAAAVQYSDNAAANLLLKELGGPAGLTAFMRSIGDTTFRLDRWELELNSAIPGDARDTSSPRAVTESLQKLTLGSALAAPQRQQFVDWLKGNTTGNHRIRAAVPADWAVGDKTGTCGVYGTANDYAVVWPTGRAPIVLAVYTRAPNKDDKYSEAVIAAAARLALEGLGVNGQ

NC(=O)[C@@H]1CC[C@@H]2CN1C(=O)N2OS(=O)(=O)O [avibactam]
Kd (KPC-3): 7.49 nM

C[C@H]1[C@H](NC(=O)/C(=N\OC(C)(C)C(=O)O)c2csc(N)n2)C(=O)N1S(=O)(=O)O [aztreonam]
MIC (E. coli DH10B; read-out: MIC (mg/L)^a / ATM): < 0.125 mg/L

Cc1nnc(SCC2=C(C(=O)O)N3C(=O)[C@@H](NC(=O)Cn4cnnn4)[C@H]3SC2)s1 [cefazolin]
MIC ([1]; read-out: MIC (mg/L)^a / CZO): 256 mg/L (≈ 563 µM) | MIC ([2]; read-out: MIC (mg/L) ^a / CZO): 256 mg/L (≈ 563 µM) | MIC ([3]; read-out: MIC (mg/L)^a / CZO): > 256 mg/L | MIC (E. coli DH10B; read-out: MIC (mg/L)^a / CZO): 2 mg/L (≈ 4.4 µM)

CO/N=C(\C(=O)N[C@@H]1C(=O)N2C(C(=O)[O-])=C(C[N+]3(C)CCCC3)CS[C@H]12)c1csc(N)n1 [cefepime]
MIC ([1]; read-out: MIC (mg/L)^a / FEP): 4 mg/L (≈ 8.32 µM) | MIC ([2]; read-out: MIC (mg/L) ^a / FEP): 8 mg/L (≈ 16.6 µM) | MIC ([3]; read-out: MIC (mg/L)^a / FEP): > 256 mg/L | MIC (E. coli DH10B; read-out: MIC (mg/L)^a / FEP): < 0.125 mg/L

CC(C)(O/N=C(\C(=O)N[C@@H]1C(=O)N2C(C(=O)[O-])=C(C[n+]3ccccc3)CS[C@H]12)c1csc(N)n1)C(=O)O [ceftazidime]
MIC ([1]; read-out: MIC (mg/L)^a / CAZ): 8 mg/L (≈ 14.6 µM) | MIC ([2]; read-out: MIC (mg/L) ^a / CAZ): 64 mg/L (≈ 117 µM) | MIC ([3]; read-out: MIC (mg/L)^a / CAZ): > 256 mg/L | MIC (E. coli DH10B; read-out: MIC (mg/L)^a / CAZ): 0.25 mg/L (≈ 0.457 µM)

CO/N=C(\C(=O)N[C@@H]1C(=O)N2C(C(=O)O)=C(CSc3nc(=O)c(O)nn3C)CS[C@H]12)c1csc(N)n1 [ceftriaxone]
MIC (E. coli DH10B; read-out: MIC (mg/L)^a / CRO): < 0.125 mg/L

CO/N=C(\C(=O)N[C@@H]1C(=O)N2C(C(=O)O)=C(COC(N)=O)CS[C@H]12)c1ccco1 [cefuroxime]
MIC ([1]; read-out: MIC (mg/L)^a / CXM): > 256 mg/L | MIC ([2]; read-out: MIC (mg/L) ^a / CXM): > 256 mg/L | MIC ([3]; read-out: MIC (mg/L)^a / CXM): > 256 mg/L | MIC (E. coli DH10B; read-out: MIC (mg/L)^a / CXM): 4 mg/L (≈ 9.43 µM)

C[C@@H](O)[C@H]1C(=O)N2C(C(=O)O)=C(SCCN=CN)C[C@H]12 [imipenem]
MIC ([1]; read-out: MIC (mg/L)^a / IPM): 1 mg/L (≈ 3.34 µM) | MIC ([2]; read-out: MIC (mg/L) ^a / IPM): 2 mg/L (≈ 6.68 µM) | MIC ([3]; read-out: MIC (mg/L)^a / IPM): 16 mg/L (≈ 53.4 µM) | MIC (E. coli DH10B; read-out: MIC (mg/L)^a / IPM): 0.25 mg/L (≈ 0.835 µM)

C[C@@H](O)[C@H]1C(=O)N2C(C(=O)O)=C(S[C@@H]3CN[C@H](C(=O)N(C)C)C3)[C@H](C)[C@H]12 [meropenem]
MIC ([1]; read-out: MIC (mg/L)^a / MEM): 0.25 mg/L (≈ 0.652 µM) | MIC ([2]; read-out: MIC (mg/L) ^a / MEM): 0.25 mg/L (≈ 0.652 µM) | MIC ([3]; read-out: MIC (mg/L)^a / MEM): > 4 mg/L | MIC (E. coli DH10B; read-out: MIC (mg/L)^a / MEM): < 0.0312 mg/L

CCN1CCN(C(=O)N[C@@H](C(=O)N[C@@H]2C(=O)N3[C@@H]2SC(C)(C)[C@@H]3C(=O)O)c2ccccc2)C(=O)C1=O [piperacillin]
MIC ([1]; read-out: MIC (mg/L)^a / PIP): > 256 mg/L | MIC ([2]; read-out: MIC (mg/L) ^a / PIP): > 256 mg/L | MIC ([3]; read-out: MIC (mg/L)^a / PIP): > 256 mg/L | MIC (E. coli DH10B; read-out: MIC (mg/L)^a / PIP): 2 mg/L (≈ 3.86 µM)

KPC-2 (Klebsiella pneumoniae)
Km [4]: 590 ± 48 µM | kcat [4]: 3.27 ± 0.27 s⁻¹ | kcat/Km [4]: 5500 ± 400 M⁻¹ s⁻¹ | Km [5]: 793 ± 34 µM | kcat [5]: 7.7 ± 0.5 s⁻¹ | kcat/Km [5]: 9700 ± 900 M⁻¹ s⁻¹ | Km [6]: 310 ± 23 µM | kcat [6]: 4.7 ± 0.1 s⁻¹ | kcat/Km [6]: 15000 ± 1200 M⁻¹ s⁻¹ | Km [7]: 98 ± 9 µM | kcat [7]: 28 ± 2 s⁻¹ | kcat/Km [7]: 290000 ± 10000 M⁻¹ s⁻¹ | Km [8]: 16 ± 1 µM | kcat [8]: 8 ± 0.5 s⁻¹ | kcat/Km [8]: 500000 ± 50000 M⁻¹ s⁻¹ | Km [9]: 110 ± 3 µM | kcat [9]: 65 ± 5 s⁻¹ | kcat/Km [9]: 590000 ± 41000 M⁻¹ s⁻¹

KPC-3 (Klebsiella pneumoniae)
Km [4]: 233 ± 19 µM | kcat [4]: 2.7 ± 0.2 s⁻¹ | kcat/Km [4]: 11000 ± 1200 M⁻¹ s⁻¹ | Km [5]: 1,097 ± 84 μM | kcat [5]: 5.2 ± 0.1 s⁻¹ | kcat/Km [5]: 4800 ± 400 M⁻¹ s⁻¹ | Km [6]: 512 ± 48 µM | kcat [6]: 4.5 ± 0.3 s⁻¹ | kcat/Km [6]: 8900 ± 400 M⁻¹ s⁻¹ | Km [7]: 64 ± 3 µM | kcat [7]: 33 ± 0.7 s⁻¹ | kcat/Km [7]: 520000 ± 34000 M⁻¹ s⁻¹ | Km [8]: 24 ± 1 µM | kcat [8]: 5.7 ± 0.4 s⁻¹ | kcat/Km [8]: 230000 ± 16000 M⁻¹ s⁻¹ | Km [9]: 368 ± 16 µM | kcat [9]: 61 ± 2 s⁻¹ | kcat/Km [9]: 170000 ± 13000 M⁻¹ s⁻¹
